The Kd is the constant that tells how readily two partners part at equilibrium. The low end stands for a tighter complex, the high end for a looser complex.

The results in this text go back to patent publication US20250197483A1 (US Dept. of Health and Human Services, published 2025).

The chains are these.
B1: VRC07-523LS.v1 (antibody, human IgG1, kappa)
heavy: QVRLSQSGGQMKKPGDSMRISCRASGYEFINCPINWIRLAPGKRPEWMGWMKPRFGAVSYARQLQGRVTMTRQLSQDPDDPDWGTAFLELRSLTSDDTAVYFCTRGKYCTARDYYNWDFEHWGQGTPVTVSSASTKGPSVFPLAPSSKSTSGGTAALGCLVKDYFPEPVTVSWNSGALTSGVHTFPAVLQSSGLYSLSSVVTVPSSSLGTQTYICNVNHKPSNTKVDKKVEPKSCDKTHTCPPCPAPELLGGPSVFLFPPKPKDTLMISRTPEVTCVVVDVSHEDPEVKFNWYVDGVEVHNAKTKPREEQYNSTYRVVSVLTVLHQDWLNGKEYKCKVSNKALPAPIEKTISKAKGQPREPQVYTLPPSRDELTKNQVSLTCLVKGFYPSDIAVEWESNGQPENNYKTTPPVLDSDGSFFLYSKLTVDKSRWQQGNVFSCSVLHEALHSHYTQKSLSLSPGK
light: LTQSPGTLSLSPGETAIISCRTSQYGSLAWYQQRPGQAPRLVIYSGSTRAAGIPDRFSGSRWGPDYNLTISNLESGDFGVYYCQQYEFFGQGTKVQVDIKRTVAAPSVFIFPPSDEQLKSGTASVVCLLNNFYPREAKVQWKVDNALQSGNSQESVTEQDSKDSTYSLSSTLTLSKADYEKHKVYACEVTHQGLSSPVTKSFNRGEC
B2: VRC07-523LS.v11 (antibody, human IgG1, kappa)
heavy: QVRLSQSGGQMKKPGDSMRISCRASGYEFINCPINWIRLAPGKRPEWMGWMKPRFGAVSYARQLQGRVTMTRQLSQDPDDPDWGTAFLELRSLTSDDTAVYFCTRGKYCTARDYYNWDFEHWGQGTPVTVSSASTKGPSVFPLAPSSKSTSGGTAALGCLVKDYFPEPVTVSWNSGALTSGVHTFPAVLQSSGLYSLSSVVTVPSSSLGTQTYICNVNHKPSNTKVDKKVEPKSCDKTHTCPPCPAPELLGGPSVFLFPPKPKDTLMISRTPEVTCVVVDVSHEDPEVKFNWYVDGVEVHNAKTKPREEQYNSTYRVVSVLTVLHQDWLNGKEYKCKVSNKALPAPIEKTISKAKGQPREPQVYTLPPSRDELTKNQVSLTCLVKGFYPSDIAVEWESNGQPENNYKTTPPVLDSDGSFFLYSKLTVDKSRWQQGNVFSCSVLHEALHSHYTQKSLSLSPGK
light: B1 light with R21D
B3: VRC07-523LS.v34 (antibody, human IgG1, kappa)
heavy: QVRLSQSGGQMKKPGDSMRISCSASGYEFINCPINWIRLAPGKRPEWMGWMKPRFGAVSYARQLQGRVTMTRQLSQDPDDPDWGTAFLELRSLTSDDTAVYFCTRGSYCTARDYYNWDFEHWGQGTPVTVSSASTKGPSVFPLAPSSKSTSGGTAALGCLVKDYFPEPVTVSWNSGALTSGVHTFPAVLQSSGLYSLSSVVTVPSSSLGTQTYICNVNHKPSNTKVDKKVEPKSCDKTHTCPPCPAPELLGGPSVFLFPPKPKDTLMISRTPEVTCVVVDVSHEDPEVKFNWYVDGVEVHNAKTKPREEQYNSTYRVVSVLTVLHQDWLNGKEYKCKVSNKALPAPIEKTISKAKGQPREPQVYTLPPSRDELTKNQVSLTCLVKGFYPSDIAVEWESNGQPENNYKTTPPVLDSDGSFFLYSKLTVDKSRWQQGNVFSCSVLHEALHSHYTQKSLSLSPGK
light: B1 light with R21E

Changes are numbered by the printed parent chain.

In this assay the target is T1, FcRn/β2m heterodimer (UniProt P55899 24-297; P61769 21-119).
T1 construct: also called His-tagged FcRn/β2m; neonatal Fc receptor
T1 sequence (P55899 24-297 limits assumed, chain 1 of 2): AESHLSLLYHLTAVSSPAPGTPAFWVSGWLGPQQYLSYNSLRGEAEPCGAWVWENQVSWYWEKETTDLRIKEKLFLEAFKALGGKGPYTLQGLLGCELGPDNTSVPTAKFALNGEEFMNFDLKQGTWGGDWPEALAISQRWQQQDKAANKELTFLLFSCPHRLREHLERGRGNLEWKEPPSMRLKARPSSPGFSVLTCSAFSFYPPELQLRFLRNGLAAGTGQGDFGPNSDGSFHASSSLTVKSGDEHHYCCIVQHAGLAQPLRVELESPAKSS
T1 sequence (P61769 21-119 limits assumed, chain 2 of 2): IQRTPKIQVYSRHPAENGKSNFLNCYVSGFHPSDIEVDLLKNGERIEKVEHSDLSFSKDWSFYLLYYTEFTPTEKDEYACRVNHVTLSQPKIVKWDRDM
Description: BLI (Octet), pH 7.4: Ni-NTA biosensors coated with His-tagged FcRn/β2m dipped into wells with the antibody as analyte. A general note: Biolayer interferometry detects binding as a change in optical thickness at a sensor tip.
Description: Fc-FcRn binding kinetics by bio-layer interferometry. We used Octet HTX system (ForteBio) to measure the Fc-FcRn binding kinetics with FcRn/2m as ligand. […] For reference, we repeated the entire steps mentioned above but with blank Ni-NTA biosensors. Binding kinetic sensograms were globally fitted with 1:1 model and double referencing to extract kinetic parameters.
Turning to B1, binding was characterised by a dissociation constant (Kd) of 0.93 µM.

B2 showed a Kd of 3.96 µM.

As for B3, the Kd is 6 µM.
